Reference: article PMC10121219

Target: insulin receptor ectodomain (UniProt P06213)
Experiment: SPR; insulin receptor immobilised; svPDE flowed at 0.25, 0.5, 1.0, 2.0, 4.0 and 8.0 uM; KD by steady-state affinity model; apparent

## snake venom phosphodiesterase (svPDE) from Naja atra (from UniProt A0A2D0TC04 1-830)
  Kd: 1.8 µM
